Tests used:
[1] = biological target: AAV2 (wild type), serotype 2 AAV with capsid region VP1 of SEQ ID NO: 99 (adeno-associated virus serotype 2 (AAV2)) (UniProt P03135); assay: affinity HPLC, POROS AAVX resin, linear pH gradient 4.5 to 2.2, AAV2 peak top
[2] = biological target: AAV2 D528A (adeno-associated virus serotype 2 (AAV2)) (UniProt P03135); assay: as above
[3] = biological target: AAV2 D529E (adeno-associated virus serotype 2 (AAV2)) (UniProt P03135); assay: as above
[4] = biological target: AAV2 E499A (adeno-associated virus serotype 2 (AAV2)) (UniProt P03135); assay: as above
[5] = biological target: AAV2 H271A (adeno-associated virus serotype 2 (AAV2)) (UniProt P03135); assay: as above
[6] = biological target: AAV2 H271T (adeno-associated virus serotype 2 (AAV2)) (UniProt P03135); assay: as above
[7] = biological target: AAV2 Q263A (adeno-associated virus serotype 2 (AAV2)) (UniProt P03135); assay: as above
[8] = biological target: AAV2 S267A (adeno-associated virus serotype 2 (AAV2)) (UniProt P03135); assay: as above
[9] = biological target: AAV2 S384A (adeno-associated virus serotype 2 (AAV2)) (UniProt P03135); assay: as above
[10] = biological target: AAV2 (wild type), serotype 2 AAV with capsid region VP1 of SEQ ID NO: 99 (adeno-associated virus serotype 2 (AAV2)) (UniProt P03135); assay: affinity HPLC, POROS AAVX resin, linear pH gradient 6.0 to 2.0, AAV2 peak top
[11] = biological target: AAV2 D528A (adeno-associated virus serotype 2 (AAV2)) (UniProt P03135); assay: as above
[12] = biological target: AAV2 D529A (adeno-associated virus serotype 2 (AAV2)) (UniProt P03135); assay: as above
[13] = biological target: AAV2 D529E (adeno-associated virus serotype 2 (AAV2)) (UniProt P03135); assay: as above
[14] = biological target: AAV2 E499A (adeno-associated virus serotype 2 (AAV2)) (UniProt P03135); assay: as above
[15] = biological target: AAV2 G383A (adeno-associated virus serotype 2 (AAV2)) (UniProt P03135); assay: as above
[16] = biological target: AAV2 H271A (adeno-associated virus serotype 2 (AAV2)) (UniProt P03135); assay: as above
[17] = biological target: AAV2 H271F (adeno-associated virus serotype 2 (AAV2)) (UniProt P03135); assay: as above
[18] = biological target: AAV2 H271Q (adeno-associated virus serotype 2 (AAV2)) (UniProt P03135); assay: as above
[19] = biological target: AAV2 H271T (adeno-associated virus serotype 2 (AAV2)) (UniProt P03135); assay: as above
[20] = biological target: AAV2 N382A (adeno-associated virus serotype 2 (AAV2)) (UniProt P03135); assay: as above
[21] = biological target: AAV2 Q263A (adeno-associated virus serotype 2 (AAV2)) (UniProt P03135); assay: as above
[22] = biological target: AAV2 Q385A (adeno-associated virus serotype 2 (AAV2)) (UniProt P03135); assay: as above
[23] = biological target: AAV2 R471A (adeno-associated virus serotype 2 (AAV2)) (UniProt P03135); assay: as above
[24] = biological target: AAV2 S264A (adeno-associated virus serotype 2 (AAV2)) (UniProt P03135); assay: as above
[25] = biological target: AAV2 S267A (adeno-associated virus serotype 2 (AAV2)) (UniProt P03135); assay: as above
[26] = biological target: AAV2 S267T (adeno-associated virus serotype 2 (AAV2)) (UniProt P03135); assay: as above
[27] = biological target: AAV2 S384A (adeno-associated virus serotype 2 (AAV2)) (UniProt P03135); assay: as above
[28] = biological target: AAV2 T503S (adeno-associated virus serotype 2 (AAV2)) (UniProt P03135); assay: as above

POROS Capture Select AAVX Affinity Resin (manufactured by Thermo Fisher Scientific)
AAVX column elution time [1]: 48.2 min
AAVX column elution time [2]: 47.8 min
AAVX column elution time [3]: 48 min
AAVX column elution time [4]: 47.8 min
AAVX column elution time [5]: 48.2 min
AAVX column elution time [6]: 47.9 min
AAVX column elution time [7]: 48 min
AAVX column elution time [8]: 48 min
AAVX column elution time [9]: 48 min
AAVX column elution time [10]: 59.3 min
AAVX column elution time [11]: 59.1 min
AAVX column elution time [12]: 59.3 min
AAVX column elution time [13]: 59.3 min
AAVX column elution time [14]: 59.3 min
AAVX column elution time [15]: 59.3 min
AAVX column elution time [16]: 59.4 min
AAVX column elution time [17]: 59.3 min
AAVX column elution time [18]: 59.3 min
AAVX column elution time [19]: 59.3 min
AAVX column elution time [20]: 59.2 min
AAVX column elution time [21]: 59.3 min
AAVX column elution time [22]: 59.3 min
AAVX column elution time [23]: 59.4 min
AAVX column elution time [24]: 59.2 min
AAVX column elution time [25]: 59.3 min
AAVX column elution time [26]: 59.2 min
AAVX column elution time [27]: 59.3 min
AAVX column elution time [28]: 59.4 min
